Here are results for 8 molecules from patent US20260266848A1, “COMPOSITIONS AND METHODS FOR DIAGNOSING AND TREATING DYSTONIA” (Duke University, priority 2023, published 2026).

First the molecules themselves.
B1: RAP2B (protein, UniProt P61225 1-180, looked up)
Ras-related protein Rap-2b: MREYKVVVLGSGGVGKSALTVQFVTGSFIEKYDPTIEDFYRKEIEVDSSPSVLEILDTAGTEQFASMRDLYIKNGQGFILVYSLVNQQSFQDIKPMRDQIIRVKRYERVPMILVGNKVDLEGEREVSYGEGKALAEEWSCPFMETSAKNKASVDELFAEIVRQMNYAAQPNGDEGCCSAC
B2: GART (protein, UniProt P22102 2-1010, looked up)
Trifunctional purine …: AARVLIIGSGGREHTLAWKLAQSHHVKQVLVAPGNAGTACSEKISNTAISISDHTALAQFCKEKKIEFVVVGPEAPLAAGIVGNLRSAGVQCFGPTAEAAQLESSKRFAKEFMDRHGIPTAQWKAFTKPEEACSFILSADFPALVVKASGLAAGKGVIVAKSKEEACKAVQEIMQEKAFGAAGETIVIEELLDGEEVSCLCFTDGKTVAPMPPAQDHKRLLEGDGGPNTGGMGAYCPAPQVSNDLLLKIKDTVLQRTVDGMQQEGTPYTGILYAGIMLTKNGPKVLEFNCRFGDPECQVILPLLKSDLYEVIQSTLDGLLCTSLPVWLENHTALTVVMASKGYPGDYTKGVEITGFPEAQALGLEVFHAGTALKNGKVVTHGGRVLAVTAIRENLISALEEAKKGLAAIKFEGAIYRKDVGFRAIAFLQQPRSLTYKESGVDIAAGNMLVKKIQPLAKATSRSGCKVDLGGFAGLFDLKAAGFKDPLLASGTDGVGTKLKIAQLCNKHDTIGQDLVAMCVNDILAQGAEPLFFLDYFSCGKLDLSVTEAVVAGIAKACGKAGCALLGGETAEMPDMYPPGEYDLAGFAVGAMERDQKLPHLERITEGDVVVGIASSGLHSNGFSLVRKIVAKSSLQYSSPAPDGCGDQTLGDLLLTPTRIYSHSLLPVLRSGHVKAFAHITGGGLLENIPRVLPEKLGVDLDAQTWRIPRVFSWLQQEGHLSEEEMARTFNCGVGAVLVVSKEQTEQILRDIQQHKEEAWVIGSVVARAEGSPRVKVKNLIESMQINGSVLKNGSLTNHFSFEKKKARVAVLISGTGSNLQALIDSTREPNSSAQIDIVISNKAAVAGLDKAERAGIPTRVINHKLYKNRVEFDSAIDLVLEEFSIDIVCLAGFMRILSGPFVQKWNGKMLNIHPSLLPSFKGSNAHEQALETGVTVTGCTVHFVAEDVDAGQIILQEAVPVKRGDTVATLSERVKLAEHKIFPAALQLVASGTVQLGENGKICWVKEE
B3: NDNF (protein, UniProt Q8TB73 20-568, looked up)
Protein NDNF: QKLPTRDEELFQMQIRDKAFFHDSSVIPDGAEISSYLFRDTPKRYFFVVEEDNTPLSVTVTPCDAPLEWKLSLQELPEDRSGEGSGDLEPLEQQKQQIINEEGTELFSYKGNDVEYFISSSSPSGLYQLDLLSTEKDTHFKVYATTTPESDQPYPELPYDPRVDVTSLGRTTVTLAWKPSPTASLLKQPIQYCVVINKEHNFKSLCAVEAKLSADDAFMMAPKPGLDFSPFDFAHFGFPSDNSGKERSFQAKPSPKLGRHVYSRPKVDIQKICIGNKNIFTVSDLKPDTQYYFDVFVVNINSNMSTAYVGTFARTKEEAKQKTVELKDGKITDVFVKRKGAKFLRFAPVSSHQKVTFFIHSCLDAVQIQVRRDGKLLLSQNVEGIQQFQLRGKPKAKYLVRLKGNKKGASMLKILATTRPTKQSFPSLPEDTRIKAFDKLRTCSSATVAWLGTQERNKFCIYKKEVDDNYNEDQKKREQNQCLGPDIRKKSEKVLCKYFHSQNLQKAVTTETIKGLQPGKSYLLDVYVIGHGGHSVKYQSKVVKTRKFC
B4: HNRNPC (protein, UniProt P07910 2-306, looked up)
Heterogeneous nuclear …: ASNVTNKTDPRSMNSRVFIGNLNTLVVKKSDVEAIFSKYGKIVGCSVHKGFAFVQYVNERNARAAVAGEDGRMIAGQVLDINLAAEPKVNRGKAGVKRSAAEMYGSVTEHPSPSPLLSSSFDLDYDFQRDYYDRMYSYPARVPPPPPIARAVVPSKRQRVSGNTSRRGKSGFNSKSGQRGSSKSGKLKGDDLQAIKKELTQIKQKVDSLLENLEKIEKEQSKQAVEMKNDKSEEEQSSSSVKKDETNVKMESEGGADDSAEEGDLLDDDDNEDRGDDQLELIKDDEKEAEEGEDDRDSANGEDDS
B5: PRPSAP2 (protein, UniProt O60256 1-369, looked up)
Phosphoribosyl pyrophosphate …: MFCVTPPELETKMNITKGGLVLFSANSNSSCMELSKKIAERLGVEMGKVQVYQEPNRETRVQIQESVRGKDVFIIQTVSKDVNTTIMELLIMVYACKTSCAKSIIGVIPYFPYSKQCKMRKRGSIVSKLLASMMCKAGLTHLITMDLHQKEIQGFFNIPVDNLRASPFLLQYIQEEIPDYRNAVIVAKSPASAKRAQSFAERLRLGIAVIHGEAQDAESDLVDGRHSPPMVRSVAAIHPSLEIPMLIPKEKPPITVVGDVGGRIAIIVDDIIDDVDSFLAAAETLKERGAYKIFVMATHGLLSSDAPRRIEESAIDEVVVTNTIPHEVQKLQCPKIKTVDISMILSEAIRRIHNGESMSYLFRNIGLDD
B6: MRC2 (protein, UniProt Q9UBG0 31-1479, looked up)
C-type mannose receptor 2: GAPGDAALPEPNVFLIFSHGLQGCLEAQGGQVRVTPACNTSLPAQRWKWVSRNRLFNLGTMQCLGTGWPGTNTTASLGMYECDREALNLRWHCRTLGDQLSLLLGARTSNISKPGTLERGDQTRSGQWRIYGSEEDLCALPYHEVYTIQGNSHGKPCTIPFKYDNQWFHGCTSTGREDGHLWCATTQDYGKDERWGFCPIKSNDCETFWDKDQLTDSCYQFNFQSTLSWREAWASCEQQGADLLSITEIHEQTYINGLLTGYSSTLWIGLNDLDTSGGWQWSDNSPLKYLNWESDQPDNPSEENCGVIRTESSGGWQNRDCSIALPYVCKKKPNATAEPTPPDRWANVKVECEPSWQPFQGHCYRLQAEKRSWQESKKACLRGGGDLVSIHSMAELEFITKQIKQEVEELWIGLNDLKLQMNFEWSDGSLVSFTHWHPFEPNNFRDSLEDCVTIWGPEGRWNDSPCNQSLPSICKKAGQLSQGAAEEDHGCRKGWTWHSPSCYWLGEDQVTYSEARRLCTDHGSQLVTITNRFEQAFVSSLIYNWEGEYFWTALQDLNSTGSFFWLSGDEVMYTHWNRDQPGYSRGGCVALATGSAMGLWEVKNCTSFRARYICRQSLGTPVTPELPGPDPTPSLTGSCPQGWASDTKLRYCYKVFSSERLQDKKSWVQAQGACQELGAQLLSLASYEEEHFVANMLNKIFGESEPEIHEQHWFWIGLNRRDPRGGQSWRWSDGVGFSYHNFDRSRHDDDDIRGCAVLDLASLQWVAMQCDTQLDWICKIPRGTDVREPDDSPQGRREWLRFQEAEYKFFEHHSTWAQAQRICTWFQAELTSVHSQAELDFLSHNLQKFSRAQEQHWWIGLHTSESDGRFRWTDGSIINFISWAPGKPRPVGKDKKCVYMTASREDWGDQRCLTALPYICKRSNVTKETQPPDLPTTALGGCPSDWIQFLNKCFQVQGQEPQSRVKWSEAQFSCEQQEAQLVTITNPLEQAFITASLPNVTFDLWIGLHASQRDFQWVEQEPLMYANWAPGEPSGPSPAPSGNKPTSCAVVLHSPSAHFTGRWDDRSCTEETHGFICQKGTDPSLSPSPAALPPAPGTELSYLNGTFRLLQKPLRWHDALLLCESRNASLAYVPDPYTQAFLTQAARGLRTPLWIGLAGEEGSRRYSWVSEEPLNYVGWQDGEPQQPGGCTYVDVDGAWRTTSCDTKLQGAVCGVSSGPPPPRRISYHGSCPQGLADSAWIPFREHCYSFHMELLLGHKEARQRCQRAGGAVLSILDEMENVFVWEHLQSYEGQSRGAWLGMNFNPKGGTLVWQDNTAVNYSNWGPPGLGPSMLSHNSCYWIQSNSGLWRPGACTNITMGVVCKLPRAEQSSFSPSALPENPAALVVVLMAVLLLLALLTAALILYRRRQSIERGAFEGARYSRSSSSPTEATEKNILVSDMEMNEQQE
B7: LIPG (protein, UniProt Q9Y5X9 21-500, looked up)
Endothelial lipase: SPVPFGPEGRLEDKLHKPKATQTEVKPSVRFNLRTSKDPEHEGCYLSVGHSQPLEDCSFNMTAKTFFIIHGWTMSGIFENWLHKLVSALHTREKDANVVVVDWLPLAHQLYTDAVNNTRVVGHSIARMLDWLQEKDDFSLGNVHLIGYSLGAHVAGYAGNFVKGTVGRITGLDPAGPMFEGADIHKRLSPDDADFVDVLHTYTRSFGLSIGIQMPVGHIDIYPNGGDFQPGCGLNDVLGSIAYGTITEVVKCEHERAVHLFVDSLVNQDKPSFAFQCTDSNRFKKGICLSCRKNRCNSIGYNAKKMRNKRNSKMYLKTRAGMPFRVYHYQMKIHVFSYKNMGEIEPTFYVTLYGTNADSQTLPLEIVERIEQNATNTFLVYTEEDLGDLLKIQLTWEGASQSWYNLWKEFRSYLSQPRNPGRELNIRRIRVKSGETQRKLTFCTEDPENTSISPGRELWFRKCRDGWRMKNETSPTVELP
B8: WDR26 (protein, UniProt Q9H7D7 1-661, looked up)
WD repeat-containing protein …: MQANGAGGGGGGGGGGGGGGGGGGGQGQTPELACLSAQNGESSPSSSSSAGDLAHANGLLPSAPSAASNNSNSLNVNNGVPGGAAAASSATVAAASATTAASSSLATPELGSSLKKKKRLSQSDEDVIRLIGQHLNGLGLNQTVDLLMQESGCRLEHPSATKFRNHVMEGDWDKAENDLNELKPLVHSPHAIVVRGALEISQTLLGIIVRMKFLLLQQKYLEYLEDGKVLEALQVLRCELTPLKYNTERIHVLSGYLMCSHAEDLRAKAEWEGKGTASRSKLLDKLQTYLPPSVMLPPRRLQTLLRQAVELQRDRCLYHNTKLDNNLDSVSLLIDHVCSRRQFPCYTQQILTEHCNEVWFCKFSNDGTKLATGSKDTTVIIWQVDPDTHLLKLLKTLEGHAYGVSYIAWSPDDNYLVACGPDDCSELWLWNVQTGELRTKMSQSHEDSLTSVAWNPDGKRFVTGGQRGQFYQCDLDGNLLDSWEGVRVQCLWCLSDGKTVLASDTHQRIRGYNFEDLTDRNIVQEDHPIMSFTISKNGRLALLNVATQGVHLWDLQDRVLVRKYQGVTQGFYTIHSCFGGHNEDFIASGSEDHKVYIWHKRSELPIAELTGHTRTVNCVSWNPQIPSMMASASDDGTVRIWGPAPFIDHQNIEEECSSMDS

This data set concerns DYT1 patient plasma derived EVs. The data set is described as follows: Plasma-derived EV proteomics (ExoQuick ULTRA, DIA LC/MS/MS), DYT1 vs Healthy Controls. Also on record: species or system human. The settings on record: Hs. Plasma EVs (DYT1/WT); significance of genotype difference. How it is done: Data was obtained for extracellular vesicles using previously acquired samples. The ExoQuick® ULTRA EV Isolation System was used to fractionate and enrich EVs from plasma. Isolated plasma EV samples were then submitted to proteomic analysis by the Duke Proteomics and Metabolomics Core Facility (DPMCF). At the DPMCF, quantitative (LC/MS/MS) was performed on 500 ng of each sample, using an EvoSep One UPLC system coupled to a Thermo Orbitrap Astral high-resolution accurate mass tandem mass spectrometer (Thermo). Briefly, the sample was eluted directly from an Evotip which was subjected to a low organic wash and then subjected to an analytical separation using a 1.7 μm EvoSep 150 um ID×15 cm endurance (EveoSep) column running an SPD30 gradient from approximately 5 to 30% acetonitrile with 0.1% formic acid with a column temperature of 50 C. Data collection on the Orbitrap Astral mass spectrometer was performed in a data-independent acquisition (DIA) mode of acquisition with a r=240,000 (@m/z 200) full MS scan from m/z 380-980 with a target AGC value of 4e5 ions. Fixed DIA, windows of 4 m/z from m/z 380 to 980 DIA MS/MS scans were acquired in the Astral with a target AGC value of 5e4 and a max fill time of 6 ms. HCD collision energy setting of 27% was used for all MS2 scans.
Consider B1, for which the “-LogP” value was 2.656.
Regarding B2, the “-LogP” value is reported as 1.317.
Then B3, with 1.312; and B4, with 2.933.
Consider B5, for which the “-LogP” value was 1.629.
In the case of B6 it was 1.456; in that of B7, 1.303.
B8: the “-LogP” value was 1.772.
